Data reported in US20240010721A1 (HARBOUR BIOMED SHANGHAI, published 2024).

Columns and labels:
[1] = molecular target: T1, human ROR1 (hROR1) on cells (human, UniProt Q01973 30-937); test: FACS, Panc-1 cells; note: test concentration or dose not given here
T1 construct: whole, on cells; the cell line is named under assay; also called HEK293T-hROR1; 293T-hROR1

[2] = molecular target: T1, human ROR1 (hROR1) on cells; test: FACS, HEK293T-hROR1 cells; note: test concentration or dose not given here
[3] = molecular target: ROR1 (antigen of the KD determination and of the Octet dissociation measurement) (UniProt Q01973 30-403, limits assumed); test: Octet, antigen form not stated
Sequence of ROR1 (antigen of the KD determination and of the Octet dissociation measurement) (Q01973 30-403 limits assumed): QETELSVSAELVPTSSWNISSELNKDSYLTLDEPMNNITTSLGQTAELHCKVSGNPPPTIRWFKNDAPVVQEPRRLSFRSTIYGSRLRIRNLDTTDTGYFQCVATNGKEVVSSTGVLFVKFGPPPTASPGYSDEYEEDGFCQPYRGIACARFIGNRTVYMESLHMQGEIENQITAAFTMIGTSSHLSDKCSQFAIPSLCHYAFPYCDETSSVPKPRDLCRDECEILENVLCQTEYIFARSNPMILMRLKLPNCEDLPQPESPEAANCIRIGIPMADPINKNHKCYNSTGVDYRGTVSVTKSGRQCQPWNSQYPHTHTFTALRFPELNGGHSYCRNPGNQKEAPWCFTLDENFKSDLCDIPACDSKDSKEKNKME

T1 sequence (Q01973 30-937): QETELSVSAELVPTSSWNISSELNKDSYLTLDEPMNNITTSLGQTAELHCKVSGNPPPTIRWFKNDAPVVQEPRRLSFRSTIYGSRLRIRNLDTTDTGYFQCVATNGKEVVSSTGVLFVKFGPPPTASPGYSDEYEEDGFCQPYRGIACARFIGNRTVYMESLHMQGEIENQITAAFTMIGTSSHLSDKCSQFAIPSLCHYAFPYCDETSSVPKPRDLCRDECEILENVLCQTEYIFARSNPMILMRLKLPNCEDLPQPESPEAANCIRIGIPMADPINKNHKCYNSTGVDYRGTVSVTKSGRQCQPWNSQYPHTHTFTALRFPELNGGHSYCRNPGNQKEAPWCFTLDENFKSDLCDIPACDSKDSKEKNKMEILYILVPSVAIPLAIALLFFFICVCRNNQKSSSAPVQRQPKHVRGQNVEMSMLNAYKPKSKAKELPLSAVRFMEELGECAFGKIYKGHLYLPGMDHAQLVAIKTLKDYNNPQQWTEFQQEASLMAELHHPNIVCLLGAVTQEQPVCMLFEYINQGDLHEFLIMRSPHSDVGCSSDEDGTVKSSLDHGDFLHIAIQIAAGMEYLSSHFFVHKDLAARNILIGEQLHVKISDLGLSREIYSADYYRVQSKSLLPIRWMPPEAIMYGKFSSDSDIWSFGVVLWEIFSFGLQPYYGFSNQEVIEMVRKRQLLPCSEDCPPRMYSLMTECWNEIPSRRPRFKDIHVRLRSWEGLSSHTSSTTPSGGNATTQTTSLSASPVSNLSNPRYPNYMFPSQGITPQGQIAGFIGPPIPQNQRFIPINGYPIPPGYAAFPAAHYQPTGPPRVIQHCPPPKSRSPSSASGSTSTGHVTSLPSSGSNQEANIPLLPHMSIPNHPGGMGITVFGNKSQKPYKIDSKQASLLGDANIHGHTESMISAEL

Binder	MFI [1] [MFI]	MFI [2] [MFI]	Response [3]	koff [3] [s⁻¹]
PR002562 (antibody, human IgG1, kappa, V domains shown, PR001354 variant: VL N92Q; hIgG1; also called anti-ROR1 1015M2-C9(L: N92Q) hIgG1) VH: QVQLVQSGGGVVQPGRSLRLSCAASGFTFSSYGMHWVRQAPGKGLEWVAIMWYDGSDKDYADSVKGRFTISRDTSKNTLYLQMNSLRAEDTAVYYCAREQARSFDLWGRGTLVTVSS VL: DIVMTQSPSSLSASVGDRVTITCRASQTINNWLAWYQQKPGKAPKLLIYKASSLESGVPSRFSGSGSGTEFTLTISSLQPDDFATYYCQQYQSYSPMYTFGQGTKVEIKR	5600	43900	0.629	0.000162
PR002563 (antibody, human IgG1, kappa, V domains shown, PR001354 variant: VL S93A; hIgG1; also called anti-ROR1 1015M2-C9(L: S93A) hIgG1) VH: QVQLVQSGGGVVQPGRSLRLSCAASGFTFSSYGMHWVRQAPGKGLEWVAIMWYDGSDKDYADSVKGRFTISRDTSKNTLYLQMNSLRAEDTAVYYCAREQARSFDLWGRGTLVTVSS VL: DIVMTQSPSSLSASVGDRVTITCRASQTINNWLAWYQQKPGKAPKLLIYKASSLESGVPSRFSGSGSGTEFTLTISSLQPDDFATYYCQQYNAYSPMYTFGQGTKVEIKR	5020	43800	0.757	0.000122
PR002568 (antibody, human IgG1, kappa, V domains shown, PR001354 variant: VH G55A, VL N92Q; hIgG1; also called anti-ROR1 1015M2-C9(H: G55A; L: N92Q) hIgG1) VH: QVQLVQSGGGVVQPGRSLRLSCAASGFTFSSYGMHWVRQAPGKGLEWVAIMWYDASDKDYADSVKGRFTISRDTSKNTLYLQMNSLRAEDTAVYYCAREQARSFDLWGRGTLVTVSS VL: DIVMTQSPSSLSASVGDRVTITCRASQTINNWLAWYQQKPGKAPKLLIYKASSLESGVPSRFSGSGSGTEFTLTISSLQPDDFATYYCQQYQSYSPMYTFGQGTKVEIKR	3620	46300	0.702	0.00014
PR002567 (antibody, human IgG1, kappa, V domains shown, PR001354 variant: VH G55A; hIgG1; also called anti-ROR1 1015M2-C9(H: G55A) hIgG1) VH: QVQLVQSGGGVVQPGRSLRLSCAASGFTFSSYGMHWVRQAPGKGLEWVAIMWYDASDKDYADSVKGRFTISRDTSKNTLYLQMNSLRAEDTAVYYCAREQARSFDLWGRGTLVTVSS VL: DIVMTQSPSSLSASVGDRVTITCRASQTINNWLAWYQQKPGKAPKLLIYKASSLESGVPSRFSGSGSGTEFTLTISSLQPDDFATYYCQQYNSYSPMYTFGQGTKVEIKR	7030	41900	0.707	0.000215
PR002566 (antibody, human IgG1, kappa, V domains shown, PR001354 variant: VH D54E, VL S93A; hIgG1; also called anti-ROR1 1015M2-C9(H: D54E; L: S93A) hIgG1) VH: QVQLVQSGGGVVQPGRSLRLSCAASGFTFSSYGMHWVRQAPGKGLEWVAIMWYEGSDKDYADSVKGRFTISRDTSKNTLYLQMNSLRAEDTAVYYCAREQARSFDLWGRGTLVTVSS VL: DIVMTQSPSSLSASVGDRVTITCRASQTINNWLAWYQQKPGKAPKLLIYKASSLESGVPSRFSGSGSGTEFTLTISSLQPDDFATYYCQQYNAYSPMYTFGQGTKVEIKR	4630	43300	0.663	0.000135
PR002564 (antibody, human IgG1, kappa, V domains shown, PR001354 variant: VH D54E; hIgG1; also called anti-ROR1 1015M2-C9(H: D54E) hIgG1) VH: QVQLVQSGGGVVQPGRSLRLSCAASGFTFSSYGMHWVRQAPGKGLEWVAIMWYEGSDKDYADSVKGRFTISRDTSKNTLYLQMNSLRAEDTAVYYCAREQARSFDLWGRGTLVTVSS VL: DIVMTQSPSSLSASVGDRVTITCRASQTINNWLAWYQQKPGKAPKLLIYKASSLESGVPSRFSGSGSGTEFTLTISSLQPDDFATYYCQQYNSYSPMYTFGQGTKVEIKR	6590	43200	0.748	0.000108
PR002565 (antibody, human IgG1, kappa, V domains shown, PR001354 variant: VH D54E, VL N92Q; hIgG1; also called anti-ROR1 1015M2-C9(H: D54E; L: N92Q) hIgG1) VH: QVQLVQSGGGVVQPGRSLRLSCAASGFTFSSYGMHWVRQAPGKGLEWVAIMWYEGSDKDYADSVKGRFTISRDTSKNTLYLQMNSLRAEDTAVYYCAREQARSFDLWGRGTLVTVSS VL: DIVMTQSPSSLSASVGDRVTITCRASQTINNWLAWYQQKPGKAPKLLIYKASSLESGVPSRFSGSGSGTEFTLTISSLQPDDFATYYCQQYQSYSPMYTFGQGTKVEIKR	6820	46900	0.595	0.000106

The next lines start with the values.

MFI [1] [MFI]	MFI [2] [MFI]	Response [3]	koff [3] [s⁻¹]	Binder
5870	45300	0.485	0.000172	PR002574 (antibody, human IgG1, kappa, V domains shown, PR001364 variant: VH D54E; hIgG1; also called anti-ROR1 1015M3-D8(H: D54E) hIgG1) VH: EVQLLESGGGVVQPGRSLRLSCAASGFTFSSFGMHWVRQAPGKGLEWVAVIWYEGSDKDYADSVKGRFTISRDTSKNTLYLQMNSLRAEDTAVYYCAREQARSFDLWGRGTLVTVSS VL: DIVMTQSPSTLSASVGDRVTITCRASQTINNWLAWYQQKPGKAPKLLIYKASSLESGVPSRFSGSGSGTEFTLTISSLQPDDFATYYCQQYNSYSPMYTFGQGTKVEIKR
3930	43000	0.606	0.000104	PR002572 (antibody, human IgG1, kappa, V domains shown, PR001364 variant: VL N92Q; hIgG1; also called anti-ROR1 1015M3-D8(L: N92Q) hIgG1) VH: EVQLLESGGGVVQPGRSLRLSCAASGFTFSSFGMHWVRQAPGKGLEWVAVIWYDGSDKDYADSVKGRFTISRDTSKNTLYLQMNSLRAEDTAVYYCAREQARSFDLWGRGTLVTVSS VL: DIVMTQSPSTLSASVGDRVTITCRASQTINNWLAWYQQKPGKAPKLLIYKASSLESGVPSRFSGSGSGTEFTLTISSLQPDDFATYYCQQYQSYSPMYTFGQGTKVEIKR
6490	44200	0.244	0.000601	PR002577 (antibody, human IgG1, kappa, V domains shown, PR001364 variant: VH G55A; hIgG1; also called anti-ROR1 1015M3-D8(H: G55A) hIgG1) VH: EVQLLESGGGVVQPGRSLRLSCAASGFTFSSFGMHWVRQAPGKGLEWVAVIWYDASDKDYADSVKGRFTISRDTSKNTLYLQMNSLRAEDTAVYYCAREQARSFDLWGRGTLVTVSS VL: DIVMTQSPSTLSASVGDRVTITCRASQTINNWLAWYQQKPGKAPKLLIYKASSLESGVPSRFSGSGSGTEFTLTISSLQPDDFATYYCQQYNSYSPMYTFGQGTKVEIKR
3250	33800	0.828	0.000112	PR002575 (antibody, human IgG1, kappa, V domains shown, PR001364 variant: VH D54E, VL N92Q; hIgG1; also called anti-ROR1 1015M3-D8(H: D54E; L: N92Q) hIgG1) VH: EVQLLESGGGVVQPGRSLRLSCAASGFTFSSFGMHWVRQAPGKGLEWVAVIWYEGSDKDYADSVKGRFTISRDTSKNTLYLQMNSLRAEDTAVYYCAREQARSFDLWGRGTLVTVSS VL: DIVMTQSPSTLSASVGDRVTITCRASQTINNWLAWYQQKPGKAPKLLIYKASSLESGVPSRFSGSGSGTEFTLTISSLQPDDFATYYCQQYQSYSPMYTFGQGTKVEIKR
3660	43100	0.472	0.00108	PR002570 (antibody, human IgG1, kappa, V domains shown, PR001356 variant: VH D54E; hIgG1; also called anti-ROR1 1015M2-E6(H: D54E) hIgG1) VH: QVQLVESGGGVVQPGRSLRLSCAASGFTFSSYGMHWVRQAPGKGLEWVAVAWYEGVSEDYADSVKGRFTISRDNAKNTLYLQMNSLRAEDTAVYYCAREQARSFDLWGRGTLVTVSS VL: DIVMTQSPSTLSASVGDRVTITCRASQSINNWLAWYQQKPGKAPKLLIYKASSLESGVPSRFSGSGSGTEFTLTISSLQPDDFATYYCQQYKSYSPMYTFGQGTKVEIKR
2470	40200	0.866	9.83e-05	PR002576 (antibody, human IgG1, kappa, V domains shown, PR001364 variant: VH D54E, VL S93A; hIgG1; also called anti-ROR1 1015M3-D8(H: D54E; L: S93A) hIgG1) VH: EVQLLESGGGVVQPGRSLRLSCAASGFTFSSFGMHWVRQAPGKGLEWVAVIWYEGSDKDYADSVKGRFTISRDTSKNTLYLQMNSLRAEDTAVYYCAREQARSFDLWGRGTLVTVSS VL: DIVMTQSPSTLSASVGDRVTITCRASQTINNWLAWYQQKPGKAPKLLIYKASSLESGVPSRFSGSGSGTEFTLTISSLQPDDFATYYCQQYNAYSPMYTFGQGTKVEIKR
3710	37200	0.723	8.84e-05	PR002573 (antibody, human IgG1, kappa, V domains shown, PR001364 variant: VL S93A; hIgG1; also called anti-ROR1 1015M3-D8(L: S93A) hIgG1) VH: EVQLLESGGGVVQPGRSLRLSCAASGFTFSSFGMHWVRQAPGKGLEWVAVIWYDGSDKDYADSVKGRFTISRDTSKNTLYLQMNSLRAEDTAVYYCAREQARSFDLWGRGTLVTVSS VL: DIVMTQSPSTLSASVGDRVTITCRASQTINNWLAWYQQKPGKAPKLLIYKASSLESGVPSRFSGSGSGTEFTLTISSLQPDDFATYYCQQYNAYSPMYTFGQGTKVEIKR
6700	45100	0.414	0.000322	PR002578 (antibody, human IgG1, kappa, V domains shown, PR001364 variant: VH G55A, VL N92Q; hIgG1; also called anti-ROR1 1015M3-D8(H: G55A; L: N92Q) hIgG1) VH: EVQLLESGGGVVQPGRSLRLSCAASGFTFSSFGMHWVRQAPGKGLEWVAVIWYDASDKDYADSVKGRFTISRDTSKNTLYLQMNSLRAEDTAVYYCAREQARSFDLWGRGTLVTVSS VL: DIVMTQSPSTLSASVGDRVTITCRASQTINNWLAWYQQKPGKAPKLLIYKASSLESGVPSRFSGSGSGTEFTLTISSLQPDDFATYYCQQYQSYSPMYTFGQGTKVEIKR
3760	34500	0.614	0.000207	PR002569 (antibody, human IgG1, kappa, V domains shown, PR001354 variant: VH G55A, VL S93A; hIgG1; also called anti-ROR1 1015M2-C9(H: G55A; L: S93A) hIgG1) VH: QVQLVQSGGGVVQPGRSLRLSCAASGFTFSSYGMHWVRQAPGKGLEWVAIMWYDASDKDYADSVKGRFTISRDTSKNTLYLQMNSLRAEDTAVYYCAREQARSFDLWGRGTLVTVSS VL: DIVMTQSPSSLSASVGDRVTITCRASQTINNWLAWYQQKPGKAPKLLIYKASSLESGVPSRFSGSGSGTEFTLTISSLQPDDFATYYCQQYNAYSPMYTFGQGTKVEIKR
4560	49600	0.638	0.000113	PR002571 (antibody, human IgG1, kappa, V domains shown, PR001356 variant: VH G55A; hIgG1; also called anti-ROR1 1015M2-E6(H: G55A) hIgG1) VH: QVQLVESGGGVVQPGRSLRLSCAASGFTFSSYGMHWVRQAPGKGLEWVAVAWYDAVSEDYADSVKGRFTISRDNAKNTLYLQMNSLRAEDTAVYYCAREQARSFDLWGRGTLVTVSS VL: DIVMTQSPSTLSASVGDRVTITCRASQSINNWLAWYQQKPGKAPKLLIYKASSLESGVPSRFSGSGSGTEFTLTISSLQPDDFATYYCQQYKSYSPMYTFGQGTKVEIKR
